Laboratory results: the nanobody polyreactivity screen of Harvey et al. (2022)

Assay: yeast display, Sf9 membrane polyspecificity reagent, FACS + sequencing; frameworks hold sequencing errors
In short: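 Nanobodies from a synthetic yeast display library (Saccharomyces cerevisiae BJ5465), induced 36–48 hours with galactose, were stained 1 hour at 4 °C with 10% biotinylated, detergent-solubilized Sf9 membrane reagent, enriched on streptavidin microbeads, then FACS-sorted. Anti-HA (expression) and streptavidin (reagent binding) fluorescence set low and high (top ~1%) gates. Polyreactivity labels come from the gate of origin. Genes were colony-PCR amplified, MiSeq 2 × 250 sequenced and filtered by CDR length.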

Sequence	polyreactivity (PSR sort gate)
QVQLVESGGGLVQAGGSLRLSCADSVSIFRVNAKRWYTQAPGKERELVAGISSRGGTSTYYADSVKGRFTISRDNAKNTVYLQMNSLKPEDTAVYYCNKTDITTSRHDYWRQGTQVTVSS	low polyreactivity
QVQLVESGGGLVQAGGSLRLSCADSVSTFQPNAMGSYRQAPGKERELVAAISRGGSTKYAYSVKGRITISRDSAKNTVYLQMNSLKPEDTAVYYRAVVFYRHVGYSGYYYWGQGTQVTVSS	low polyreactivity
QVQLVESGGGLVQAGGSLRLSCAESGLTFWDYVMGWYRQAPGKEMELVAAISDSGGDTYYADSVKGRFTISRDNAKNTVYLQMNSLKPEDTAVYYCAAEYAEYVLEYYRLYEYWGQGTQVTVSS	high polyreactivity
QVQLVESGGGLVQAGGSLRLSCAEYDMGWYRQAPGKERELVATITARGGSTYADSVKGRFTISRDNAKNTVYLQMNSLKPEDTAVYYCAADRFFWLRSYPRYYYWGQGTQVTVSS	low polyreactivity
QVQLVESGGGLVQAGGSLRLSCAGSGFSFPNNGMGGYRQAPGKERELVAAIRSSGGSTYYADSVKGRFTISRDNAKNTVYLQMNSLKPEDTAVYYCNARRRGGYVGRPRYPVAAYDYWGQGTQVTVSS	low polyreactivity
QVQLVESGGGLVQAGGSLRLSCAGSGIIFHLYAMGWYRQAPGKERELVAAISWNGSSTYYADSVKGRFTISRDNAKNTVYLQMNSLKPEDTAVYYCAASYGYFEDYGYWGQGTQVTVSS	low polyreactivity
QVQLVESGGGLVQAGGSLRLSCAGSGRIFGGYAMGWYRQAPGTERELVAAISRRGGSTYYADSVKGRFTISRDNAKNTVYLQMNSLKPEDTAVYYCARDYGGVGAPGSAGAYDYWGQGTQVTVSS	high polyreactivity
QVQLVESGGGLVQAGGSLRLSCAGSGRIFSENAMGWYRQAPGKERELVAAISVSGGSTYYADSVKGRFTISRDNAKNTVYLQMNSLKPEDTAVYYCAAEYLAYYSGYDYWGQGTQVTVSS	high polyreactivity
QVQLVESGGGLVQAGGSLRLSCAGSGSIFYQYAMGWYRQAPGKERELVAAISDSGGSTHYADSVKGRFTISRDNAKNTVYLQMNSLKPEDTAVYYCPANLYYQYGGDYWGQGSQVTVSS	low polyreactivity
QVQLVESGGGLVQAGGSLRLSCAGSGSIFYSNAMGWSRPAPGKERELVAAICWNGGRTYYADSVKGRFTISRDNAKNTVYLQMNSLKPEDTAVYYCAAKYRNRYDYWGHGTQVTVSS	low polyreactivity
QVQLVESGGGLVQAGGSLRLSCAGSGSTFPRYPMGWYRQAPGKERELVAAISYSGGRTYYADSVKGRFTISRDYAKNTVYLQMNSLKAEDTAVYYCKKRWRGAGTSYDYWGQGTQGTVSS	high polyreactivity
QVQLVESGGGLVQAGGSLRLSCAGSGSTFRSNAMGWYRQAPGKERELVAAISRSGGRTYYADSVKGRFTISRDNAKNTVYLQMNSLKPEDTAVYYCNTVLKRQRKNEYWGQGTQVTVSS	high polyreactivity
QVQLVESGGGLVQAGGSLRLSCAGSGSTLTWNDMGWYRHAPGKERELVASITQSGDSTYYADSVKGRFTISRDNAKNTVYLQMNSLKPEDTAVYYCSGVYTYPLGYYHYTYDYWGQGTQVTVSS	low polyreactivity
QVQLVESGGGLVQAGGSLRLSCAPCGSIFSSYAMGWYRQAPGQDWELVAAISSGGCITYYADSVKGRFTISRDNAKNTVYLQMHSLKPEDTAVYYCNARVARSNYGWYYDWGQGTQVTVSS	high polyreactivity
QVQLVESGGGLVQAGGSLRLSCAPSAGTFSPYDMGWSRQSPGKQRELVASITGSGGSTYFADSVKGRFTISRGNAKNTVYLQMNSLKPEDTAVYYCDAQGYWTYWPYLLRLYDYWGQGTQVTVSS	low polyreactivity
QVQLVESGGGLVQAGGSLRLSCAPSGFIFGSHAMGWYRQARGKERELVAAISARGGRTYYADSVKERFTISRDNAKNTVYLQMNSLKPADSAVYYCATLDTTGVNYWGQGTQVTVSS	high polyreactivity
QVQLVESGGGLVQAGGSLRLSCAPSGFIFGSYAMGWYTQAPGKERELVAAISRSGGRTYYADSVKGRFTISRDNAKNTVYLQMNSLKPEDSAVYYCAAVHLLVYPTYDSWGQGTQVTVSS	high polyreactivity
QVQLVESGGGLVQAGGSLRLSCAPSGFIFHKYVMGWYRQAPGKERELVAAISRSGASTYYADSVKGRFTISRDNAKNTVYLQMNSLKPEDTAVYYCNAQPGKWEYDYWGQGTQVTVSS	high polyreactivity
QVQLVESGGGLVQAGGSLRLSCAPSGFIFYFYTMGRYRQAPGKEMELVAGITWLDGSTYYADSVKGRLTISRDNAKNTVYLQRNSLKPEDTAVYYCAVDYDLVVSPYYYWGQGTQVTVSS	low polyreactivity
QVQLVESGGGLVQAGGSLRLSCAPSGFTFRFYVMGWYRQAPGKERELVAAISSSGGSTYYADSVKGRFTISRDNAKYTVYLQMNSMKPEDTAVYYCAADVPGARVSYWTYSGWHYDYWGQGTQVTVSS	high polyreactivity
QVQLVESGGGLVQAGGSLRLSCAPSGGTFVSYVMGWYRQAPGKERELVAAISVSGGRTYYADSVKGRFTISRDNAKNTVYLQMNSLKPEDTAVYYCAADSVVVGSPGNDYWGQGTQVTVSS	high polyreactivity
QVQLVESGGGLVQAGGSLRLSCAPSGIIFRIYAMGWYRQAPGKEREFVAAISGSGDSTYYADSVKGRFTISRDNAKNTVYLQMNSLKPEDTAVYYCAADWTLVYYHEDYWGQGSQVTVSS	high polyreactivity

Sequence	polyreactivity (PSR sort gate)
QVQLVESGGGLVQAGGSLRLSCAPSGIIFYAYAMGWYRQAPGKEREFVAAINNSGGRTYYADSVKGRFTISRDNAKNTVYLQMNSLKPEDTAVYYCAVYSYYRRTYRREMDYWGQGTQVTVSS	high polyreactivity
QVQLVESGGGLVQAGGSLRLSCAPSGISIIGYAMGWYRQAPGKVRELVASIDSGGITNYADSVKGRFTISRDNAKNTVYLQMNSLKPEDTAVYDCAARVAYFGGPYYSWGEGTQVTVSS	high polyreactivity
QVQLVESGGGLVQAGGSLRLSCAPSGLIFASYAMGWYRQAPGKERELVAAITSSGGSTYYADSVKGRFTISRDNAKNTVYLQMNSLKPEDTAVYYCAADIYTYNLFYHWRWLDYNYWGQGTQVTVSS	high polyreactivity
QVQLVESGGGLVQAGGSLRLSCAPSGNTFGRNAMGWYRQAPGKERELVAAISFSGSRTYYADSVKGRFTISRDNAKNTVYLQMSSLKPEDTAVYYCNKRGADWTGFFYYEYDYWGQGTQVTVSS	low polyreactivity
QVQLVESGGGLVQAGGSLRLSCAPSGRIFFYYVMGWYRQAPGKERELVAAITRSGGSTYYADSVKGRFTISRDNAKNTVYLQMNSLKPEDTAVYYCAVGDGFEFDWGQGTQVTVSS	low polyreactivity
QVQLVESGGGLVQAGGSLRLSCAPSGRIFHYNAMGWYRQAPGKERELVAAIDYGGSSTYYADSVKGRFTISRDNAKNTVYLEMNSLKPEDTAVYYCWGQATQVTVSS	low polyreactivity
QVQLVESGGGLVQAGGSLRLSCAPSGRIFQANAMGWYRQAPGKERELVASISSGVSTNYADYVKGRFTISRDNAKNTVYLQMNSQKQEDTGVYYCADSDPSSAYWVGYYWYDNWGQGTQVTVSS	low polyreactivity
QVQLVESGGGLVQAGGSLRLSCAPSGRIFQYYTMGWSRQAPGKDRELVATISRRGGRTYYADSVKGRFTISRDNAKNTVYLQKNSLKPEDTAVYYCAARTYSYEYDYWGQGTQVTVSS	high polyreactivity
QVQLVESGGGLVQAGGSLRLSCAPSGRIFRTNTMGWYRQAPGKERELVAAITRGGSTYYADSVKGRFTISRDNAKNTDYLQMKSLKPEDTAVYYCAASRYYNTVHNGGDYWGQGTQVTVSS	high polyreactivity
QVQLVESGGGLVQAGGSLRLSCAPSGRIFTRYAMGWYRQAPGKERELVAASSSSGGSTYYADSVKGRFTISRDNAKNTVYLQMTSLKPEDTAVYYCNRGGWYAYYWGQGTQVTVSS	high polyreactivity
QVQLVESGGGLVQAGGSLRLSCAPSGRIFYSYAMGWYRQAPGKVRELVAAIRSRGGSTRYADSVKGRFTISRDNAKNNVYLQMNSLKPEDTAVYYCAATGYQSRGSSDYWGQGTQVSVSS	high polyreactivity
QVQLVESGGGLVQAGGSLRLSCAPSGRIFYYYAKGWYRQAPGKERELVAAINSGGSTNYADSVKGRFTISRDNAKNTVYLQMNSLKPEDTAVYYCAADAKLVSEFDYWGQGTQVTVSS	low polyreactivity
QVQLVESGGGLVQAGGSLRLSCAPSGRIVYYYAMGWYRHAPGKERELVASITFSGGRTFYADSVKGRFTITRDYAKNTVYLQMNSVTPEDTAVYYGAAVRCGRRSGGLVAEYDYWGQGTQVSVSS	high polyreactivity
QVQLVESGGGLVQAGGSLRLSCAPSGRMFVFYTMGWYRPAPGKESELVAYINSGGSTYYADSVKGRFTISRDNAKNSVYLQMNSLKPEDTAVYYCAAGPCRGPDSRWRYKYDYWGQGTQVTVSS	high polyreactivity
QVQLVESGGGLVQAGGSLRLSCAPSGRTFIFYAMGWYRQAPGKERELVAAISSSGSGTYYADSLKGRFTISRDNAKNTVYLQMNSLKPEDTAVYSCAAAVVNSRRRPKYGYWGQGTQVTVSS	low polyreactivity
QVQLVESGGGLVQAGGSLRLSCAPSGRTFNYNAMGWYRQAPGKERELVAAITSSGGGTSYADSVKGRFTISRDNAKNTVYFQMNSLKPYYTAVYYCAAEVDRGKYCSTYRGGDYCGQGTQVTVSS	high polyreactivity
QVQLVESGGGLVQAGGSLRLSCAPSGRTFRYYAMGWYRQAPGKERELVATISKSGGSTYYADSVKGRFTISRDNAKNTVYLQMNSLKPEDTAVYYCAAPIYNGYASWQVYYWGQGTQVTVSS	high polyreactivity
QVQLVESGGGLVQAGGSLRLSCAPSGRTFTAYAMGWYRQAPGKERELVAAITSGGSTYYADSVKGRFTISRDNAKNTVYLKRKSLKPEDTAVYYCATDLYSFYWPEYEYWGQGTQVTLSS	low polyreactivity
QVQLVESGGGLVQAGGSLRLSCAPSGRTFWSYAMGWYRQAPGKERELVAAISLDDGTTYYADSVKGRFTISRDNAKNTVYLQMNSLKPEDTAVYDCAAEREQGDDGYGPDYGYWGQGTQVTVSS	high polyreactivity
QVQLVESGGGLVQAGGSLRLSCAPSGSIFEINAMGWYRQAPGKERELVAAITGSGGSTHYADSVKGRFTISRDNAKKTVYLEMNSLKPEDTAVYYCAAVQRYQYGYWGQGTQVTVSS	low polyreactivity
QVQLVESGGGLVQAGGSLRLSCAPSGSIFVVNAMGWFRQAPGKEREFVAAITFGGGTTYYADSVKGRITISRDNAKNTVYLQMYSLKPEDTEVYYCNTRTRGYSSYVGGYNYWGQGTQVTVSS	low polyreactivity
